Data on five molecules can be found in patent US11021533 (dated 2021).

B1: ZIKV-19 (antibody, V domains shown)
VH: QVQLVQSGPEVKKPGSSVKVSCKASGVSFNTYEISWVRQAPGQGLEWMGRIIPIFATPTYALKFQGRVTITTDESTTTGYMELSSLRSEDTAVYYCAGRPYGPGSWLPLDVWGQGTLVTVSS
VL: DIVMTQSPSSLSASVGDRVTITCRASQGISSYLAWYQQKPGKLPKLLIYAASTLQSGVPSRFSGSGSGTDFTLTISSLQPEDVAAYYCQKYDSAPFTFGPGTKVDLK
B2: ZIKV-88 (antibody, V domains shown)
VH: QVQLLESGGGVVQPGRSLRLSCVASGLTFSTSAMHWVRQAPGKGLEWVAVISYDGSYKFYADSVRDQFTISRDNSKTTLYLQMDGLTPEDTAVYYCARGYNDDSSGSYWYFDLWGRGTLVTVSS
VL: QSVLTQPPSVSAAPGQKVTMSCSGSSSNIGSNFVSWYQQLPGTAPKVLIFDNNQRPSGIPDRFSGSKSGTSATLAITGLQPGDEAVYHCGTWDSSLTFAVFGGGTKLTVL
B3: ZIKV-195 (antibody, V domains shown)
VH: QVQVVESGGGVVQPGRSLRLSCAASGFTFSSSAMHWVRQAPGKGLEWVAVISYDGSNKYYGDSVKGRFTISRDNSKNTLYLQMHSLRAEDTAVYYCAKDRDAYNTVGYFAYYYGMDVWGQGTLVTVSS
VL: QSVLTQPPSVSEAPRQRVTISCSGSSSNIGNNAVNWYQQLPGKAPKLLIYYDDLLPSGVSDRFSGSKSGTSASLAISGLQSEDEADYYCAAWDDSLTRYVFGTGTKVTVL
B4: ZIKV-190 (antibody, V domains shown)
VH: EVQLVESGGGLIQPGGSLRLSCAASGFTFSSYAMSWVRQAPGKGLEWVSAISGSGGSTYYADSVKGRFTISRDNSKNTLSLQMNSLRAEDTAVYYCARAFYYDFWTFDYWGQGTLVTVSS
VL: QSALTQPRSVSGSPGQSVTISCTGTSSDVGGYNYVSWYQQHPGKAPKLMIYAVTKRPSGVPDRFSGSKSGNTASLTISGLQAEDEADYYCCSYAGSYTYVVFGGGTKLTVL
B5: ZIKV-204 (antibody, V domains shown)
VH: QVTLRESGPALLKPTQTLTLTCTFSGFSLSTNETCVSWIRQPPGKALEWLALIDWDDDQYSSTSLAARLTVSKDTSKNQVVLTMTNVAPVDTATYYCALTRPTLTAQNGDKYYNYYYGMDVWGQGTLVTVSS
VL: EIVLTQSPGTLSLSPGERATLSCRASQSVSSMYLAWYQQKRGQPPRLLIYGTFNRATGIPDRFSGSGSGTDFTLTISRLEPEDFAVYYCQQYGSSSFTFGGGTKVEIK

In the experiment the target is ZIKV E protein ectodomain (UniProt A0A024B7W1 291-745). Description: ELISA.
Chain of ZIKV E protein ectodomain (A0A024B7W1 291-745): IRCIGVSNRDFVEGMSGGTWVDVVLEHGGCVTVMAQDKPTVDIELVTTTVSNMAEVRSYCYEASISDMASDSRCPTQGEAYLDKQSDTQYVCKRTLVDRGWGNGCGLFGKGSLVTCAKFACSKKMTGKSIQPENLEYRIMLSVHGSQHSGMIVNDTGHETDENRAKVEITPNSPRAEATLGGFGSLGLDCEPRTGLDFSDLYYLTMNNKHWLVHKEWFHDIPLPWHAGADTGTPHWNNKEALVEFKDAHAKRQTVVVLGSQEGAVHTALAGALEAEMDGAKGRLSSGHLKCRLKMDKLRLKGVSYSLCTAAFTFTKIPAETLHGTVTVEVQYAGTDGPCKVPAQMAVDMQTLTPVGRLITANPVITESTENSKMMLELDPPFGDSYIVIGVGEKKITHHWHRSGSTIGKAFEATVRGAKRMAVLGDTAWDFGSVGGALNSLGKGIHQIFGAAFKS
Molecule B1 returned an EC50 of 0.165 µg/mL. In the case of B2, the EC50 is 0.07 µg/mL.

Turning to B3, the EC50 turned out to be 0.695 µg/mL. Under B4 stands 0.082 µg/mL; under B5, 0.048 µg/mL.
